Where a chain is given by its changes, count along the chain named.
Legend:
[1] = target: His6-Rna14 (wild type) (Saccharomyces cerevisiae) (UniProt P25298); test: cross-linking
[2] = target: His6-Rna14 (wild type) (Saccharomyces cerevisiae) (UniProt P25298); test: SEC
[3] = target: His6-Rna14 (wild type) (Saccharomyces cerevisiae) (UniProt P25298); test: AUC
cross-linking = target: the molecule itself; test: cross-linking
SEC = target: the molecule itself; test: SEC
[4] = target: T1, His6-Rna14-ES (R562E/Y563S) (Saccharomyces cerevisiae, UniProt P25298 1-677, R562E | Y563S); test: cross-linking
T1 sequence (looked up): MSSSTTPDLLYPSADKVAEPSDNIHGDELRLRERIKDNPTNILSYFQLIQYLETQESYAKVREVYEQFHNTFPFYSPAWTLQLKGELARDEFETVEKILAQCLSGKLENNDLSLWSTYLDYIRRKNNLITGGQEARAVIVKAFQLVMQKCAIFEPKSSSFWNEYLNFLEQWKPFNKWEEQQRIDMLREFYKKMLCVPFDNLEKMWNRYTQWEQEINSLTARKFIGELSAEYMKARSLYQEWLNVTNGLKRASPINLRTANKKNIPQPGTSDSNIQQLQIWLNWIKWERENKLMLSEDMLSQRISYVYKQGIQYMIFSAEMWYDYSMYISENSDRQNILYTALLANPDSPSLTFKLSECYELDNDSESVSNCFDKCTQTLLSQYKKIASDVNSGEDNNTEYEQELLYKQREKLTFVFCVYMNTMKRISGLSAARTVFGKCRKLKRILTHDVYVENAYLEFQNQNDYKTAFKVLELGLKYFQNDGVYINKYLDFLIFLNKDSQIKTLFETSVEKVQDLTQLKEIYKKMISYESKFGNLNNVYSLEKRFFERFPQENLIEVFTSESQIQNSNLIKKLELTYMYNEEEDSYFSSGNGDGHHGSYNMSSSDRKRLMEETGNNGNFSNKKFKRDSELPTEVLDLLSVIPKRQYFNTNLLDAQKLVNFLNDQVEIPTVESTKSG

[5] = target: T1, His6-Rna14-ES (R562E/Y563S); test: SEC
[6] = target: MBP-tagged Pcf11/Clp1 complex (yeast, UniProt P39081 1-626; Q08685 1-445); test: pull-down
Chain of MBP-tagged Pcf11/Clp1 complex (P39081 whole entry, chain 1 of 2): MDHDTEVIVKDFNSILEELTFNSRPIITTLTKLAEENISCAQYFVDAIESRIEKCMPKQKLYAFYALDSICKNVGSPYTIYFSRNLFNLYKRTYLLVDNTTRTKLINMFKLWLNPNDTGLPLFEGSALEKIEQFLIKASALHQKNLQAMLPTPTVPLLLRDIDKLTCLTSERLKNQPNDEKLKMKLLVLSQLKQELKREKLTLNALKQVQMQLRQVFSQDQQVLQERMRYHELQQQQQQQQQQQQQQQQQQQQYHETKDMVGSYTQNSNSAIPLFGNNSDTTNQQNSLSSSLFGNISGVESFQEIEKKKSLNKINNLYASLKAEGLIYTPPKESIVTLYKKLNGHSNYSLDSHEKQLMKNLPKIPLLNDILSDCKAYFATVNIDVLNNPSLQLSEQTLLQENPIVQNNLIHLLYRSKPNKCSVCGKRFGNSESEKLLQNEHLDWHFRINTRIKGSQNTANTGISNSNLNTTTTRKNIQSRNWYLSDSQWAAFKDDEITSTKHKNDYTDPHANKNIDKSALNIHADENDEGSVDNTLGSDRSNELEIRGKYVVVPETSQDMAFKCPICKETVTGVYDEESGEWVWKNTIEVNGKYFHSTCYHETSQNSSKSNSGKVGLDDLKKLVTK
Chain of MBP-tagged Pcf11/Clp1 complex (Q08685 whole entry, chain 2 of 2): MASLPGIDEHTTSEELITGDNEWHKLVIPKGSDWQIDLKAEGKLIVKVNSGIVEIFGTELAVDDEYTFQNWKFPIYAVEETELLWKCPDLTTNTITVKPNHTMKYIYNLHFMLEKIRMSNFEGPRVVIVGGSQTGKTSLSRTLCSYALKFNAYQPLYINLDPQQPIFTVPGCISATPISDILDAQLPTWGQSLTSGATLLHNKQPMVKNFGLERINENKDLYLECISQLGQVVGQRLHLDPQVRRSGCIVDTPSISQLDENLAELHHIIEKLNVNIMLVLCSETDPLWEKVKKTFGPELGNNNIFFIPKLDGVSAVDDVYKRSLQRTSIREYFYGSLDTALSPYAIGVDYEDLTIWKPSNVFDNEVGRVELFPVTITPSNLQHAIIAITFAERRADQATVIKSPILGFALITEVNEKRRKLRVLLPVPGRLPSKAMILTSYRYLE

AUC = target: the molecule itself; test: AUC

Rna15 (untagged, co-expressed with Rna14) (from UniProt P25299 1-296) (natural protein)
stoichiometry N (Rna15 per Rna14 (2:2)) [1]: 1
ratio of Rna14 to Rna15 (intensity of stained bands, SEC peak fractions) [2]: 2.7
stoichiometry N (Rna15 per Rna14 (2:2)) [3]: 1

B1: His6-Rna14 (wild type) (natural protein, Saccharomyces cerevisiae, UniProt P25298 1-677, looked up)
chain: T1 sequence (looked up) with E562R, S563Y
stoichiometry N (cross-linking): 2 copies of Rna14 in the complex
stoichiometry N (SEC): 2

B2: Rna15 (untagged, co-expressed with Rna14) (natural protein, Saccharomyces cerevisiae, UniProt P25299 1-296, looked up)
chain: MNRQSGVNAGVQNNPPSRVVYLGSIPYDQTEEQILDLCSNVGPVINLKMMFDPQTGRSKGYAFIEFRDLESSASAVRNLNGYQLGSRFLKCGYSSNSDISGVSQQQQQQYNNINGNNNNNGNNNNNSNGPDFQNSGNANFLSQKFPELPSGIDVNINMTTPAMMISSELAKKPKEVQLKFLQKFQEWTRAHPEDAVSLLELCPQLSFVTAELLLTNGICKVDDLIPLASRPQEEASATNNNSVNEVVDPAVLNKQKELLKQVLQLNDSQISILPDDERMAIWDLKQKALRGEFGAF
stoichiometry N [4]: 1 Rna15 per Rna14-ES (1:1)
ratio of Rna14 to Rna15 (intensity of stained bands, SEC peak fractions) [5]: 2.5

B3: wild-type Rna14/Rna15 complex (2:2 heterotetramer) (complex, Saccharomyces cerevisiae)
chain 1: T1 sequence (looked up) with E562R, S563Y
chain 2: B2 chain
stoichiometry N [6]: 1 Clp1/Pcf11 sub-complex per CF IA
Kd (AUC): 45 µM
